Laboratory results: patent publication US20090311283A1
Read-outs that look alike come from different tables or passages of the source.

What was measured:
[1] = biological target: HLA-A*3101 (Human); conditions: remark: other sources report otherwise
[2] = biological target: HLA-A*0301 (human); test: competitive inhibition of 125I-labelled probe peptide binding to purified HLA; relative to standard peptide
[3] = biological target: HLA-A*1101 (human); test: as above
[4] = biological target: HLA-A*3101 (human); test: as above
[5] = biological target: HLA-A*3301 (human); test: as above
[6] = biological target: HLA-A*3301 (human)
[7] = biological target: HLA-A*3101 (human); test: competition with 125I-labelled probe peptide for purified HLA-A*3101, gel filtration; ratio to standard peptide 941.12
[8] = biological target: HLA-A*1101 (human)
[9] = biological target: HLA-A*6801 (human); test: competition with 125I-labelled probe peptide for purified HLA-A*6801, gel filtration; ratio to standard peptide 941.12
[10] = biological target: HLA-A*0301 (human); test: competition with 125I probe peptide on purified HLA-A*0301; relative to standard peptide 941.12; conditions: remark: other sources report otherwise
[11] = biological target: HLA-A*3101 (human); test: competition with 125I probe peptide on purified HLA-A*3101; relative to standard peptide 941.12; conditions: remark: other sources report otherwise
[12] = biological target: HLA-A*6801 (human); test: competition with 125I probe peptide on purified HLA-A*6801; relative to standard peptide 941.12; conditions: remark: other sources report otherwise
[13] = biological target: HLA-A*0301 (human); test: competition with 125I-labelled probe peptide for purified HLA, gel filtration
[14] = biological target: HLA-A*1101 (human); test: as above
[15] = remark: other sources report otherwise

B1: Peptide 1.0993 (HBV X 130, …) (peptide)
peptide: KVFVLGGCR
modifications: not checked
Question: B1 was tested. Which IC50 [1] did it give?
Answer: 30 nM

B2: Peptide 26.0153 (HBV X 64, …) (peptide)
peptide: SSAGPCALR
modifications: not checked
Question: B2 was tested. Which IC50 [1] did it give?
Answer: 55 nM

B3: Peptide 1.0219 (HBV X 1550, …) (peptide)
peptide: FVLGGCRHK
modifications: not checked
Question: How did the IC50 [1] turn out when B3 was run?
Answer: 1500 nM

B4: HBV POL 567 peptide … (peptide)
peptide: GIHLNPNKTK
modifications: not checked
Question: What does the source list for B4?
Answer: binding affinity ratio (IC50 of standard peptide / IC50 of test peptide) [2]: 0.0025; binding affinity ratio (IC50 of standard peptide / IC50 of test peptide) [3]: 0.0011; binding affinity ratio (IC50 of standard peptide / IC50 of test peptide) [4]: 0.0009; binding affinity ratio (IC50 of standard peptide / IC50 of test peptide) [5]: 0.0009

B5: HBV NUC 29 peptide GMDIDPYK (peptide)
peptide: GMDIDPYK
modifications: not checked
Question: How did the binding affinity ratio (IC50 of standard peptide / IC50 of test peptide) [2] turn out when B5 was run?
Answer: 0.0006

Question: And the binding affinity ratio (IC50 of standard peptide / IC50 of test peptide) [4]?
Answer: -0.0009

Question: What about the binding affinity ratio (IC50 of standard peptide / IC50 of test peptide) [5] of the same binder?
Answer: -0.0009

B6: HBV POL 569 peptide … (peptide)
peptide: HLNPNKTKR
modifications: not checked
Question: Which binding affinity ratio (IC50 of standard peptide / IC50 of test peptide) [2] does the source give for B6 here?
Answer: 0.0025

B7: HBV POL 153 peptide KAGILYKR (peptide)
peptide: KAGILYKR
modifications: not checked
Question: How did the binding affinity ratio (IC50 of standard peptide / IC50 of test peptide) [3] turn out when B7 was run?
Answer: -0.0002

Question: What about the binding affinity ratio (IC50 of standard peptide / IC50 of test peptide) [4] of the same binder?
Answer: 0.0015

Question: What about the binding affinity ratio (IC50 of standard peptide / IC50 of test peptide) [5] of the same binder?
Answer: -0.0009

B8: HBV X 11 peptide … (peptide)
peptide: PARDVLCLR
modifications: not checked
Question: Which binding affinity ratio (IC50 of standard peptide / IC50 of test peptide) [6] does the source give for B8 here?
Answer: 0.018

Question: What about the binding affinity ratio (IC50 of standard peptide / IC50 of test peptide) [7] of the same binder?
Answer: 0.01

B9: HBV POL 20 peptide PLEEELPR (peptide)
peptide: PLEEELPR
modifications: not checked
Question: For B9, which binding affinity ratio (IC50 of standard peptide / IC50 of test peptide) [8] is on record?
Answer: -0.0002

Question: And the binding affinity ratio (IC50 of standard peptide / IC50 of test peptide) [6]?
Answer: -0.0009

Question: And the binding affinity ratio (IC50 of standard peptide / IC50 of test peptide) [7]?
Answer: -0.0009

Question: What about the binding affinity ratio (IC50 of standard peptide / IC50 of test peptide) [9] of the same binder?
Answer: 0.0001

B10: HBV POL 2 peptide PLSYQHFR (peptide)
peptide: PLSYQHFR
modifications: not checked
Question: Which binding affinity ratio (IC50 of standard peptide / IC50 of test peptide) [6] does the source give for B10 here?
Answer: -0.0009

Question: And the binding affinity ratio (IC50 of standard peptide / IC50 of test peptide) [7]?
Answer: -0.0009

Question: What about the binding affinity ratio (IC50 of standard peptide / IC50 of test peptide) [9] of the same binder?
Answer: 0.0001

B11: HBV POL 2 peptide … (peptide)
peptide: PLSYQHFRK
modifications: not checked
Question: For B11, which binding affinity ratio (IC50 of standard peptide / IC50 of test peptide) [8] is on record?
Answer: 0.0031

Question: What about the binding affinity ratio (IC50 of standard peptide / IC50 of test peptide) [7] of the same binder?
Answer: 0.0006

Question: What about the binding affinity ratio (IC50 of standard peptide / IC50 of test peptide) [9] of the same binder?
Answer: 0.0002

B12: HBV POL 98 peptide PLTVNEKR (peptide)
peptide: PLTVNEKR
modifications: not checked
Question: Which binding affinity ratio (IC50 of standard peptide / IC50 of test peptide) [8] does the source give for B12 here?
Answer: -0.0002

Question: What about the binding affinity ratio (IC50 of standard peptide / IC50 of test peptide) [6] of the same binder?
Answer: -0.0009

Question: And the binding affinity ratio (IC50 of standard peptide / IC50 of test peptide) [7]?
Answer: -0.0009

Question: And the binding affinity ratio (IC50 of standard peptide / IC50 of test peptide) [9]?
Answer: 0.0001

B13: HBV POL 98 peptide … (peptide)
peptide: PLTVNEKRR
modifications: not checked
Question: Which binding affinity ratio (IC50 of standard peptide / IC50 of test peptide) [8] does the source give for B13 here?
Answer: 0.0005

Question: And the binding affinity ratio (IC50 of standard peptide / IC50 of test peptide) [6]?
Answer: 0.0027

Question: What about the binding affinity ratio (IC50 of standard peptide / IC50 of test peptide) [9] of the same binder?
Answer: 0.0002

B14: HBV X 65 peptide SAGPCALR (peptide)
peptide: SAGPCALR
modifications: not checked
Question: B14 was tested. Which binding affinity ratio (IC50 standard peptide / IC50 test peptide) [8, 15] did it give?
Answer: 0.002

Question: And the binding affinity ratio (IC50 standard peptide / IC50 test peptide) [10]?
Answer: -0.0002

Question: What about the binding affinity ratio (IC50 standard peptide / IC50 test peptide) [11] of the same binder?
Answer: 0.0029

Question: And the binding affinity ratio (IC50 standard peptide / IC50 test peptide) [12]?
Answer: 0.036

B15: HBV POL 519 peptide … (peptide)
peptide: TSAICSVVR
modifications: not checked
Question: Which results are given for B15?
Answer: binding affinity ratio (IC50 standard peptide / IC50 test peptide) [6, 15]: 0.02; binding affinity ratio (IC50 standard peptide / IC50 test peptide) [10]: 0.0005; binding affinity ratio (IC50 standard peptide / IC50 test peptide) [11]: 0.06; binding affinity ratio (IC50 standard peptide / IC50 test peptide) [12]: 0.082

B16: … (HBV NUC 118) (peptide)
peptide: YLVSFGVWIR
modifications: not checked
Question: What does the source list for B16?
Answer: binding affinity ratio (IC50 of standard peptide / IC50 of test peptide) [13]: 0.0005; binding affinity ratio (IC50 of standard peptide / IC50 of test peptide) [14]: 0.0002
